Assay results as given in EP4413995A1 (Université de Franche-Comté, dated 2024).

What was measured:
[1] = target: T1, CD123 (recombinant, soluble, analyte of the Octet assay) (human, UniProt P26951 19-305); assay: BLI (Octet, ForteBio), antibody immobilized on streptavidin biosensors, CD123 in solution (row of 25 nM)
T1 chain: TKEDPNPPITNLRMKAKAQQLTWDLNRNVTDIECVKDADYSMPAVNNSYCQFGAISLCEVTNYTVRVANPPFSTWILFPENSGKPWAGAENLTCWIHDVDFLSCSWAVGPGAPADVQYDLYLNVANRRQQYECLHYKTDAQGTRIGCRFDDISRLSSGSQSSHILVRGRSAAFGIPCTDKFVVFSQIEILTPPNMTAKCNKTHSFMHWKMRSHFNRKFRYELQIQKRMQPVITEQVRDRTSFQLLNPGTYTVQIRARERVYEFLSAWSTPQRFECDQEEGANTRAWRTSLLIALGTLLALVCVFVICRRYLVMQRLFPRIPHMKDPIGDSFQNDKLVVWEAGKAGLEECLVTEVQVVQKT

[2] = target: T1, CD123 (recombinant, soluble, analyte of …); assay: BLI (Octet, ForteBio), antibody immobilized on streptavidin biosensors, CD123 in solution (row of 50 nM)
[3] = target: T1, CD123 (recombinant, soluble, analyte of …); assay: BLI (Octet, ForteBio), antibody immobilized on streptavidin biosensors, CD123 in solution (row of 12.5 nM)
[4] = target: T1, CD123 (recombinant, soluble, analyte of …); assay: BLI (Octet, ForteBio), antibody immobilized on streptavidin biosensors, CD123 in solution (row of 6.25 nM)

B1: 18B4D5 (antibody, V domains shown)
VH: EVKLQESGPGLVKPSQSLSLTCTVTGYSITSDYTWNWIRQFPGNKLEWMGYISFSGSTSYNPSLKSRLSITRDTSKNQFFLQLNSVTTEDTATYYCARGLDYWGQGTTLTVSS
VL: DIVMTQSPAIMSASLGERVTMTCTASSSISSSYLYWYQQKPGSSPKLWIYSTSNLASGVPARFSGSGSGTSYSLTISSMEAEDAATYYCHQLHRSPWTFGGGTKLEIKR
In the case of B1, the Kd [1] is reported as < 1 pM, the koff [1] is reported as < 1e-07 s⁻¹ and the kon [1] is reported as 122000 M⁻¹ s⁻¹. The Kd [2] was < 1 pM, the koff [2] was < 1e-07 s⁻¹ and the kon [2] was 122000 M⁻¹ s⁻¹. For the same binder, the Kd [3] was < 1 pM, the koff [3] was < 1e-07 s⁻¹ and the kon [3] was 122000 M⁻¹ s⁻¹. The Kd [4] was < 1 pM, the koff [4] was < 1e-07 s⁻¹ and the kon [4] was 122000 M⁻¹ s⁻¹.
